From patent US20190248904A1 (Astellas, published 2019)
Where two headings read alike, the source gives them in different places.

Experiments:
[1] = target: T1, human BDCA-2 (human, UniProt Q8WTT0 1-213); assay: cell-based or functional assay
T1 sequence: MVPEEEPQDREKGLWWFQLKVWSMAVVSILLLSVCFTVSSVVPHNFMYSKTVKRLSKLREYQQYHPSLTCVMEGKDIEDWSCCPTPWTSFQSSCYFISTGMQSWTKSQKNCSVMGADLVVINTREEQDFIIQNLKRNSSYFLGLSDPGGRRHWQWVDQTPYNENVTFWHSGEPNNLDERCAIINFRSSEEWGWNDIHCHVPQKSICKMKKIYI

[2] = target: T2, human BDCA-2 variant (human, UniProt Q8WTT0 1-213); assay: cell ELISA on human BDCA-2 variant/CHO cells, chemiluminescence
T2 construct: It was expressed on CHO-K1 cells together with full-length human FcεRIγ; also called human BDCA-2 variant/CHO cells; extracellular region of human BDCA-2
T2 chain: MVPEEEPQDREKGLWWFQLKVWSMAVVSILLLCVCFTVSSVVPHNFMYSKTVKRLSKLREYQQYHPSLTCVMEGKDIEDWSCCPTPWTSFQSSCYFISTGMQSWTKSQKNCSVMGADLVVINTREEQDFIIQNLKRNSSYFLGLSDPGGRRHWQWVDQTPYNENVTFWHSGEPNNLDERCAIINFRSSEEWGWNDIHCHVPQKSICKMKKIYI
Experimental: (§1) In order to measure the antigen-specific binding activity of the antibody, the binding of the antibody to the human BDCA-2 variant/CHO cells prepared in Example 1 was evaluated. Specifically, the human BDCA-2 variant/CHO cells were first suspended in an RPMI1640 culture medium (Life Technologies, Inc.) at 2×10⁵ cells/mL, seeded at 50 μL per well in a poly-D-lysine-coated 384-well plate (Greiner Bio-One), and cultured overnight in a CO₂ incubator set at 37° C. Then, the culture medium was removed, and 20 μL of each of a hybridoma-derived antibody (the antibody purified in Example 2) and a comparative antibody which had been diluted stepwise from a concentration of 10000 ng/mL to 4.6 ng/mL (8 steps in a 3-fold dilution series) with a diluent solution (a Hank's Balanced Salt solution supplemented with 1% bovine serum albumin) was added thereto and reacted at room temperature for 1 hour. Next, the assay plate was washed with a washing solution (a Hank's Balanced Salt solution supplemented with 0.1% bovine serum albumin) and 20 μL of an HRP-labeled rabbit anti-mouse IgG antibody ([…]: Dako Ltd.) which had been diluted 5000-fold with a diluent solution was added thereto, and reacted at room temperature for 30 minutes. Thereafter, the assay plate was washed with a washing solution, 30 μL of BM-Chemiluminescence ELISA Substrate (POD) (Roche Diagnostics. Inc.) which is a chemiluminescence detection reagent was added thereto, and the amount of chemiluminescence thereof was measured by an EnVision counter (PerkinElmer, Inc.). For the measurement results, the EC50 values were determined by fitting a four-parameter logistic curve. In this test, as a comparative antibody, AC144 (Non-Patent Documents 1 to 4, Miltenyi Biotec) which is a mouse antibody against human BDCA-2 was used.

[3] = target: T1, human BDCA-2; assay: cell-based or functional assay; remark: listed apart in the source
[4] = target: T2, human BDCA-2 variant; assay: cell ELISA on human BDCA-2 variant/CHO cells, average of three independent tests
Experimental: as §1
According to the method of Example 3, for a fully human antibody, the binding activity of the antibody against an extracellular region of human BDCA-2 was evaluated. […]

[5] = target: T1, human BDCA-2; assay: cell-based or functional assay; remark: listed apart in the source

AC144 (antibody)
IC50 of inhibition of IFNα production from ODN2216-stimulated human PBMC (pDCs) [1]: 2.57 ng/mL
IC50 of inhibition of IFNα production from human PBMC (pDCs), first time [1]: 2.12 ng/mL
IC50 of inhibition of IFNα production from human PBMC (pDCs), second time [1]: 3.83 ng/mL
IC90 of inhibition of IFNα production from ODN2216-stimulated human PBMC (pDCs) [1]: 56.5 ng/mL
IC90 of inhibition of IFNα production from human PBMC (pDCs), first time [1]: 20.6 ng/mL
IC90 of inhibition of IFNα production from human PBMC (pDCs), second time [1]: 26.8 ng/mL
EC50 [2]: 0.133 µg/mL

B1: Fully human BDC13-32E3 (antibody, human IgG1, kappa, V domains shown)
VH: QVQLQESGPGLVKPSQTLSLTCTVSGGSISSGGYYWNWIRQHPGKGLEWIGYIYYSGNTYYNPSLKSRVTISVDTSKNQFSLKLSSVTAADAAVYHCARGYGDYGGGYFDYWGQGTLVTVSS
VL: DIQMTQSPSSLSASVGDRVTITCQASQDISNYLNWYQQKPGKAPKFLIYDVSNLETGVPSRFSGSGSGTDFTFTISSLQPEDIATYYCQQYDNLPYTFGQGTKLEIKR
modifications: pyroglutamylation at the N terminal of the heavy chain and deletion of lysine at the C terminal of the heavy chain in most of the purified antibody (Example 6)
notes: Human Igγ1 / human Igκ constant regions, expressed in CHOK1SV cells; also called fully human antibody of BDC13-32E3
IC50 of inhibition of IFNα production from human PBMC (pDCs), first time [3]: 0.32 ng/mL
IC50 of inhibition of IFNα production from human PBMC (pDCs), second time [3]: 0.59 ng/mL
IC90 of inhibition of IFNα production from human PBMC (pDCs), first time [3]: 2.03 ng/mL
IC90 of inhibition of IFNα production from human PBMC (pDCs), second time [3]: 1.25 ng/mL
EC50 [4]: 0.203 µg/mL

B2: BDC13-32E3 (chimeric) (antibody, V domains shown)
VH: QVQLQESGPGLVKPSQTLSLTCTVSGGSISSGGYYWNWIRQHPGKGLEWIGYIYYSGNTYYNPSLKSRVTISVDTSKNQFSLKLSSVTAADAAVYHCARGYGDYGGGYFDYWGQGTLVTVSS
VL: DIQMTQSPSSLSASVGDRVTITCQASQDISNYLNWYQQKPGKAPKFLIYDVSNLETGVPSRFSGSGSGTDFTFTISSLQPEDIATYYCQQYDNLPYTFGQGTKLEIKR
notes: Hybridoma-derived VelocImmune antibody: human variable regions with mouse constant regions
EC50 [2]: 0.096 µg/mL
IC50 of inhibition of IFNα production from ODN2216-stimulated human PBMC (pDCs) [5]: 0.43 ng/mL
IC90 of inhibition of IFNα production from ODN2216-stimulated human PBMC (pDCs) [5]: 1.03 ng/mL

B3: Fully human BDC3-12F5 (antibody, human IgG1, kappa, V domains shown)
VH: EVQLVESGGGLVQPGGSLRLSCAASGFTFSNYLMNWVRQAPGKGLEWVANIEQDGSEKYYVDSVKGRFTISRDNAKNSLYLQMNSLRAEDTAVYFCARDGDTAMITFDFWGQGTLVTVSS
VL: DIQMTQSPSSVSASVGDRVTITCRASQGIRRWLAWYQQKPGKAPKLLIYAASSLQRGVPSRFSGSGSGTDFTLTISSLQPEDFATYYCQQANSFPWTFGQGTKVEIKR
modifications: deletion of lysine at the C terminal of the heavy chain in most of the purified antibody (Example 6)
notes: Human Igγ1 / human Igκ constant regions, expressed in CHOK1SV cells; also called fully human antibody of BDC3-12F5
IC50 of inhibition of IFNα production from human PBMC (pDCs), first time [3]: 0.54 ng/mL
IC50 of inhibition of IFNα production from human PBMC (pDCs), second time [3]: 0.24 ng/mL
IC90 of inhibition of IFNα production from human PBMC (pDCs), first time [3]: 1.19 ng/mL
IC90 of inhibition of IFNα production from human PBMC (pDCs), second time [3]: 1.98 ng/mL
EC50 [4]: 0.088 µg/mL

B4: BDC3-12F5 (chimeric) (antibody, V domains shown)
VH: EVQLVESGGGLVQPGGSLRLSCAASGFTFSNYLMNWVRQAPGKGLEWVANIEQDGSEKYYVDSVKGRFTISRDNAKNSLYLQMNSLRAEDTAVYFCARDGDTAMITFDFWGQGTLVTVSS
VL: DIQMTQSPSSVSASVGDRVTITCRASQGIRRWLAWYQQKPGKAPKLLIYAASSLQRGVPSRFSGSGSGTDFTLTISSLQPEDFATYYCQQANSFPWTFGQGTKVEIKR
notes: as for B2
EC50 [2]: 0.057 µg/mL
IC50 of inhibition of IFNα production from ODN2216-stimulated human PBMC (pDCs) [5]: 0.23 ng/mL
IC90 of inhibition of IFNα production from ODN2216-stimulated human PBMC (pDCs) [5]: 0.93 ng/mL

B5: BDC3-12A2 (chimeric) (antibody, V domains shown)
VH: QVQLVESGGGVVQPGRSLRLSCAASGFTLSSYGMHWVRQAPGKGLEWVAVIWYDGNDKYYADSVKGRFTISRDNSKNTLYLQVNSLRAEDTAVYYCARGTGTPYWYFDLWGRGTLVTVSS
VL: EIVLTQSPATLSLSPGERATLSCRASQSVNNYLAWYQQKPGQAPRLLIYDASNRATGIPARFSGSGSGTDFTLTISSLEPEDFAVYYCQQRSTWPPYTFGQGTKLEIKR
notes: as for B2
EC50 [2]: 0.059 µg/mL
IC50 of inhibition of IFNα production from ODN2216-stimulated human PBMC (pDCs) [5]: 0.27 ng/mL
IC90 of inhibition of IFNα production from ODN2216-stimulated human PBMC (pDCs) [5]: 1.03 ng/mL

B6: Fully human BDC3-12A2 (antibody, human IgG1, kappa, V domains shown)
VH: QVQLVESGGGVVQPGRSLRLSCAASGFTLSSYGMHWVRQAPGKGLEWVAVIWYDGNDKYYADSVKGRFTISRDNSKNTLYLQVNSLRAEDTAVYYCARGTGTPYWYFDLWGRGTLVTVSS
VL: EIVLTQSPATLSLSPGERATLSCRASQSVNNYLAWYQQKPGQAPRLLIYDASNRATGIPARFSGSGSGTDFTLTISSLEPEDFAVYYCQQRSTWPPYTFGQGTKLEIKR
modifications: pyroglutamylation at the N terminal of the heavy chain and deletion of lysine at the C terminal of the heavy chain in most of the purified antibody (Example 6)
notes: Human Igγ1 / human Igκ constant regions, expressed in CHOK1SV cells; also called fully human antibody of BDC3-12A2
IC50 of inhibition of IFNα production from human PBMC (pDCs), first time [3]: 0.35 ng/mL
IC50 of inhibition of IFNα production from human PBMC (pDCs), second time [3]: 0.68 ng/mL
IC90 of inhibition of IFNα production from human PBMC (pDCs), first time [3]: 1.94 ng/mL
IC90 of inhibition of IFNα production from human PBMC (pDCs), second time [3]: 1.76 ng/mL
EC50 [4]: 0.08 µg/mL
